Assay results published in patent publication US20190194324A1 (Johns Hopkins, published 2019).

Legend:
[1] = target: T1, Human α-syn PFF (human, UniProt P37840 1-140); experiment: expression cloning screen of 352 transmembrane proteins in SH-SY5Y cells
[2] = target: T1, Human α-syn PFF; experiment: expression cloning screen in SH-SY5Y cells, streptavidin-AP staining
[3] = target: α-syn-biotin PFF (biotin-labelled α-synuclein pre-formed fibrils) (mouse, UniProt O55042 1-140); experiment: cell surface binding on LAG3-overexpressing SH-SY5Y cells, Scatchard analysis; 0% or 0.1% Triton X-100 (the legend marks both values only 'TX-100')
[4] = target: T2, α-syn-biotin PFF (biotin-labelled α-synuclein pre-formed fibrils) (mouse, UniProt O55042 1-140); experiment: alkaline phosphatase binding assay on cultured cortical neurons, WT minus LAG3-/-
[5] = target: T2, α-syn-biotin PFF (biotin-labelled …); experiment: cell surface binding assay on cells overexpressing the deletion mutant

B1: APLP1 (NM_005166) expressed in SH-SY5Y cells (Origene GFC-transfection array clone) (receptor)
chain: SLAGGSPGAAEAPGSAQVAGLCGRLTLHRDLRTGRWEPDPQRSRRCLRDPQRVLEYCRQMYPELQIARVEQATQAIPMERWCGGSRSGSCAHPHHQVVPFRCLPGEFVSEALLVPEGCRFLHQERMDQCESSTRRHQEAQEACSSQGLILHGSGMLLPCGSDRFRGVEYVCCPPPGTPDPSGTAVGDPSTRSWPPGSRVEGAEDEEEEESFPQPVDDYFVEPPQAEEEEETVPPPSSHTLAVVGKVTPTPRPTDGVDIYFGMPGEISEHEGFLRAKMDLEERRMRQINEVMREWAMADNQSKNLPKADRQALNEHFQSILQTLEEQVSGERQRLVETHATRVIALINDQRRAALEGFLAALQADPPQAERVLLALRRYLRAEQKEQRHTLRHYQHVAAVDPEKAQQMRFQVHTHLQVIEERVNQSLGLLDQNPHLAQELRPQIQELLHSEHLGPSELEAPAPGGSSEDKGGLQPPDSKDDTPMTLPKGSTEQDAASPEKEKMNPLEQYERKVNASVPRGFPFHSSEIQRDELAPAGTGVSREAVSGLLIMGAGGGSLIVLSMLLLRRKKPYGAISHGVVEVDPMLTLEEQQLRELQRHGYENPTYRFLEERP
notes: whole, on cells; also called amyloid beta (A4) precursor-like protein 1
B1: binds [1].

B2: LAG3 (NM_002286) expressed in SH-SY5Y cells (Origene GFC-transfection array clone) (receptor)
chain: LQPGAEVPVVWAQEGAPAQLPCSPTIPLQDLSLLRRAGVTWQHQPDSGPPAAAPGHPLAPGPHPAAPSSWGPRPRRYTVLSVGPGGLRSGRLPLQPRVQLDERGRQRGDFSLWLRPARRADAGEYRAAVHLRDRALSCRLRLRLGQASMTASPPGSLRASDWVILNCSFSRPDRPASVHWFRNRGQGRVPVRESPHHHLAESFLFLPQVSPMDSGPWGCILTYRDGFNVSIMYNLTVLGLEPPTPLTVYAGAGSRVGLPCRLPAGVGTRSFLTAKWTPPGGGPDLLVTGDNGDFTLRLEDVSQAQAGTYTCHIHLQEQQLNATVTLAIITVTPKSFGSPGSLGKLLCEVTPVSGQERFVWSSLDTPSQRSFSGPWLEAQEAQLLSQPWQCQLYQGERLLGAAVYFTELSSPGAQRSGRAPGALPAGHLLLFLILGVLSLLLLVTGAFGFHLWRRQWRPRRFSALEQGIHPPQAQSKIEELEQEPEPEPEPEPEPEPEPEPEQL
notes: The clone of the screen is named by NM_002286
B2: binds [2].

B3: LAG3 overexpressed in transfected cells (SH-SY5Y; HEK293FT) (receptor)
chain: B2 chain
A Kd [3] of 71 nM was found for B3 in this work.

B4: mouse LAG3 (receptor)
chain: GPGKELPVVWAQEGAPVHLPCSLKSPNLDPNFLRRGGVIWQHQPDSGQPTPIPALDLHQGMPSPRQPAPGRYTVLSVAPGGLRSGRQPLHPHVQLEERGLQRGDFSLWLRPALRTDAGEYHATVRLPNRALSCSLRLRVGQASMIASPSGVLKLSDWVLLNCSFSRPDRPVSVHWFQGQNRVPVYNSPRHFLAETFLLLPQVSPLDSGTWGCVLTYRDGFNVSITYNLKVLGLEPVAPLTVYAAEGSRVELPCHLPPGVGTPSLLIAKWTPPGGGPELPVAGKSGNFTLHLEAVGLAQAGTYTCSIHLQGQQLNATVTLAVITVTPKSFGLPGSRGKLLCEVTPASGKERFVWRPLNNLSRSCPGPVLEIQEARLLAERWQCQLYEGQRLLGATVYAAESSSGAHSARRISGDLKGGHLVLVLILGALSLFLLVAGAFGFHWWRKQLLLRRFSALEHGIQPFPAQRKIEELERELETEMGQEPEPEPEPQLEPEPRQL
notes: whole, on cells; In the in vivo co-IP the protein came from brain stem lysates of mice; also called LAG3 full-length (FL); neuronal LAG3
A Kd [4] of 103 nM was found for B4 in this work.

B5: mouse LAG3 deletion mutant ΔD1 (receptor)
chain: IASPSGVLKLSDWVLLNCSFSRPDRPVSVHWFQGQNRVPVYNSPRHFLAETFLLLPQVSPLDSGTWGCVLTYRDGFNVSITYNLKVLGLEPVAPLTVYAAEGSRVELPCHLPPGVGTPSLLIAKWTPPGGGPELPVAGKSGNFTLHLEAVGLAQAGTYTCSIHLQGQQLNATVTLAVITVTPKSFGLPGSRGKLLCEVTPASGKERFVWRPLNNLSRSCPGPVLEIQEARLLAERWQCQLYEGQRLLGATVYAAESSSGAHSARRISGDLKGGHLVLVLILGALSLFLLVAGAFGFHWWRKQLLLRRFSALEHGIQPFPAQRKIEELERELETEMGQEPEPEPEPQLEPEPRQL
notes: whole, on cells; Expressed in HEK293FT cells; also called D1 domain deletion mutant
B5: no binding [5].
